In the nanobody polyreactivity screen of Harvey et al. (2022):

Test: yeast display, Sf9 membrane polyspecificity reagent, FACS + sequencing; frameworks hold sequencing errors
Procedure, shortened: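 Galactose induction of a Saccharomyces cerevisiae BJ5465 synthetic nanobody display library ran 36–48 hours. The cells were then stained for 1 hour at 4 °C with 10% biotinylated, detergent-solubilized Sf9 membrane reagent, pulled down on streptavidin microbeads and FACS-sorted into low and high (top ~1%) gates on expression and reagent-binding fluorescence. Labels for polyreactivity follow the gate of origin.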

**Q.** For “QVQLVESGGGLVQAGGSLRLSCAAYGSTFRTNAMGWYRQAPGKERELVAAISQRGGSTYYADSVKGRFTISRDNAKNTVYLQMNSLKPEDTGVYYCAARRYAYQSGGTLLTDDYWGQGTQVTVSS”, which “polyreactivity (PSR sort gate)” value is on record?
**A.** high polyreactivity

**Q.** For “QVQLVESGGGLVQAGGSLRLSCAAYGSTFVWNTMGWYLQAPGKERELVAAINWSGTRTYYADSVKGRFTISRDNAKNTVYLQMNSLKPEDTAVYYCAAESYYPAGIRGYWGQGTQVTVSS”, which “polyreactivity (PSR sort gate)” value is on record?
**A.** high polyreactivity

**Q.** For “QVQLVESGGGLVQAGGSLRLSCAAYGYIFRLYAMGWYRQAPGKERELVAGISTGGRTNYADSVKGRFTISRDNAKNTVYLQMNSLKPEDTAVYYCAAAWHTAYWVVSDSLGGGYWGQGTQVTVSS”, which “polyreactivity (PSR sort gate)” value is on record?
**A.** low polyreactivity

**Q.** With “QVQLVESGGGLVQAGGSLRLSCAAYVRIFGYYAMGWYRQAPGKERELVAGISARGGSTYYADSVKGRLTISRDNAKNTVYLQMNSLKPEDTAVYYCAAYYLWPGYLFRPYDYWGHGTQVTVSS” as the sequence, how does the “polyreactivity (PSR sort gate)” value read?
**A.** low polyreactivity

**Q.** Which “polyreactivity (PSR sort gate)” value does the source give for “QVQLVESGGGLVQAGGSLRLSCAAYYAMGWYRQAPGKERELVAAISSTGRTNYADSVKGRFTISRDYAKNTVYLQMNSLKPEDTAVYYCNAGDPSGMDYWGQGTQVTVSS” here?
**A.** low polyreactivity

**Q.** With “QVQLVESGGGLVQAGGSLRLSCADSGFIFGNYAMGWYRQAPGKERELVAGISGSGGSTYYADSVKGRFTISRDNAKNTVYLQMNSLKPEDTAVYYCNAGWHPSQGRFEYWGQGTQVTVSS” as the sequence, how does the “polyreactivity (PSR sort gate)” value read?
**A.** high polyreactivity

**Q.** With “QVQLVESGGGLVQAGGSLRLSCADSGFIFTVNAMGLYRQAPGKERELVAAITSGGNTYYADSVKGRFTISRDNAKNTVYLQMNSLKPEDAAVYYCNAVFYTWSPYGTTVRSYGYWGQGTQVTVSS” as the sequence, how does the “polyreactivity (PSR sort gate)” value read?
**A.** high polyreactivity

**Q.** For “QVQLVESGGGLVQAGGSLRLSCADSGFILGANDMGWYRQAPGKERELVAAIRSSDGTTYYADSVKGRFTISRDNAKNTVYLQMNSLKPEDTAVYYCAADWRLLYDYWGQGTQVTVSS”, which “polyreactivity (PSR sort gate)” value is on record?
**A.** high polyreactivity

**Q.** For “QVQLVESGGGLVQAGGSLRLSCADSGFTFDYNAMGSYRQAPGKERELVAAISTGGSTKYADSVKGRFTISRDNAKNTVYLQMNSLKPEDTAVYYCNKQTTDRGFYDWKWSGFDYWGQGTQVTVSS”, which “polyreactivity (PSR sort gate)” value is on record?
**A.** low polyreactivity

**Q.** For “QVQLVESGGGLVQAGGSLRLSCADSGFTFGRYAMRWYRQATGKERELVAAISRGGSYTYYADSVKGRLTISRDNAQNTVFLQMNSLKPEDTAVYYCNIVIIWARFDYWRQGTQVTVSS”, which “polyreactivity (PSR sort gate)” value is on record?
**A.** high polyreactivity

**Q.** With “QVQLVESGGGLVQAGGSLRLSCADSGFTFRTYAMGWYRQAPGKEREFVAAITTYGGSTYYADSVKGRFTISRDNAKYTVYLQMNTLKPEDTAVYYCATRGRLRNYDYWGQGTQVTVSS” as the sequence, how does the “polyreactivity (PSR sort gate)” value read?
**A.** high polyreactivity

**Q.** For “QVQLVESGGGLVQAGGSLRLSCADSGFTFTYYTMGWYRQAPGKERELVAAISGSGGSTYYADSVKGRFTISRDNAKYTVYLQMNSQKPEDSAVYYCAARSRWQSYRLKNHGTYKHDYWGQGTQVTVSS”, which “polyreactivity (PSR sort gate)” value is on record?
**A.** high polyreactivity

**Q.** For “QVQLVESGGGLVQAGGSLRLSCADSGFTFYRNAMGWYRQAPGKERELVAAITSTGSTNYADSVKGRFTISRDNAKNTVYLQMNSLKPEDTAVYYCIKRRFGRQGMDYWGQGTQVTVSS”, which “polyreactivity (PSR sort gate)” value is on record?
**A.** low polyreactivity

**Q.** For “QVQLVESGGGLVQAGGSLRLSCADSGGTFGNTAMGLYRQAHGKEMELVAAINRSDGGTYYADSEKCRFTISRDNAKNTVYLQMNSLKPEDTAVYYCNADDFYYDEPYDFWGQGTQVTVSS”, which “polyreactivity (PSR sort gate)” value is on record?
**A.** low polyreactivity

**Q.** With “QVQLVESGGGLVQAGGSLRLSCADSGGTFYRYARGWYRQAPGKERELVAAISRRGGSTYYADSVKGRFTISRDNAKNTVYLQMNSLKPDDTAVYYCDKDVSDSRFDYWGQGTQVTVSS” as the sequence, how does the “polyreactivity (PSR sort gate)” value read?
**A.** high polyreactivity

**Q.** Which “polyreactivity (PSR sort gate)” value does the source give for “QVQLVESGGGLVQAGGSLRLSCADSGITFVRNAMGWYIHAPGKERECVAAISGSGVSTYADSVKGRFTISRDNAKNTVYLQMNILKPEDTAVYYCNTDEWYHFYHGAHKYDYWGQATQVTVSS” here?
**A.** low polyreactivity

**Q.** With “QVQLVESGGGLVQAGGSLRLSCADSGLILYTYAMGWYRQAPGKERELVAAIDWGDGDTYYADSVKGRFTISRDNAKNTVYLQMNSLKPEDTAVYYCAADLVGYSGYYFDEEYYWGQGTQVTVSS” as the sequence, how does the “polyreactivity (PSR sort gate)” value read?
**A.** high polyreactivity
